Legend:
[1] = target: MsRv1272c (MSMEG_5009) from Mycobacterium smegmatis (Mycobacterium smegmatis (Msm) mc2 155) (UniProt A0R272)
[2] = target: MsRv1272c (MSMEG_5009) from Mycobacterium smegmatis (Mycobacterium smegmatis (Msm) mc2 155) (UniProt A0R272); test: SEC

“MsRv1273c (MSMEG_5008) from Mycobacterium smegmatis (from UniProt A0R271 1-578) (natural protein)” showed a basal ATPase activity of the MsRv1273c/72c complex in peptidiscs (malachite green) (nM Pi min^–1 mg^–1) [1] of 148, a basal ATPase activity of the MsRv1273c/72c complex in proteoliposomes (malachite green) (nM Pi min^–1 mg^–1) [1] of 181 and a stoichiometry N [2] of 1.
